Positions count from the first letter of the chain named. Names and notes keep the numbering of the source.
Molecular target: T1, SipD (residues 39-343, C244S) (Salmonella typhimurium strain SL1344, UniProt Q56026 39-343, C244S)
T1 sequence: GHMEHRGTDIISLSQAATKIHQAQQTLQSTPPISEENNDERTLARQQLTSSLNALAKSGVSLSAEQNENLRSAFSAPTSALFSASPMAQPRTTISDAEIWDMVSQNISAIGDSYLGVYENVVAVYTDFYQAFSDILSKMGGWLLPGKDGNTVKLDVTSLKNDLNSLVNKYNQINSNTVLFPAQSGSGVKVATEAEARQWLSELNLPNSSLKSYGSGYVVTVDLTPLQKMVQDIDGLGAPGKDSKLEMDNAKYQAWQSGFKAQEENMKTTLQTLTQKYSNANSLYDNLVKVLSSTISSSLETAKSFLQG
Assay: NMR paramagnetic relaxation enhancement

B1: SipB^82-312 D207C, MTSL spin-labeled (domain or fragment)
chain: EGQLTLLLGKLMTLLGDVSLSQLESRLAVWQAMIESQKEMGIQVSKEFQTALGEAQEATDLYEASIKKTDTAKSVYDAATKKLTQAQNKLQSLDPADPGYAQAEAAVEQAGKEATEAKEALDKATCATVKAGTDAKAKAEKADNILTKFQGTANAASQNQVSQGEQDNLSNVARLTMLMAMFIEIVGKNTEESLQNDLALFNALQEGRQAEMEKKSAEFQEETRKAEETNR
modifications: MTSL nitroxide spin label on the engineered cysteine at 207
Does B1 bind?
Result: binds

B2: SipB^82-312 Asn-283 cysteine mutant, MTSL spin-labeled (domain or fragment)
chain: B1 chain with C126D, N202C
modifications: MTSL nitroxide spin label on the engineered cysteine at 283
Does B2 bind?
Result: binds

B3: SipB^82-312 Lys-211 cysteine mutant, MTSL spin-labeled (domain or fragment)
chain: B1 chain with C126D, K130C
modifications: MTSL nitroxide spin label on the engineered cysteine at 211
Does B3 bind?
Result: binds
